These results are taken from patent US20240158493A1 (MYTHIC THERAPEUTICS, published 2024).

This test has as its target T1, LRRC15 on U-87 MG (LRRC15+) cells (human, UniProt Q8TF66 22-581).
T1 construct: Endogenous LRRC15 of U-87 MG cells (ATCC HTB-14); also called cell surface LRRC15
T1 sequence: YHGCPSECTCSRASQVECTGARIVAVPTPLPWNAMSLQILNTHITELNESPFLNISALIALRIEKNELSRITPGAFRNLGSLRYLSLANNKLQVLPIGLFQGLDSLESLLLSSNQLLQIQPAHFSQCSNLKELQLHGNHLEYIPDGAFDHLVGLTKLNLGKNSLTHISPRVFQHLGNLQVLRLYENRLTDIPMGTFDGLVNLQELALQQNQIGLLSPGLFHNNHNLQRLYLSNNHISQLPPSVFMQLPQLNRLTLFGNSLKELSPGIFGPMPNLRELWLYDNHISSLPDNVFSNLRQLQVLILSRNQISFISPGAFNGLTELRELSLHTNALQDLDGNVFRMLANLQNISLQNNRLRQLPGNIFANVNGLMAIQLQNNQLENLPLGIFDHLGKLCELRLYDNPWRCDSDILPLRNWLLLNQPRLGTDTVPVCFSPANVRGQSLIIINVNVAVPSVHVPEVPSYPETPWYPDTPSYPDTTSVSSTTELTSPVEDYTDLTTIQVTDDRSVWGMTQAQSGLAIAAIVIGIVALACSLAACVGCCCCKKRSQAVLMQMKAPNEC
The experiment in a line: flow cytometry on U-87 MG (LRRC15+) cells, 60 nM to 1 pM. How it is done:
FIGS. 40a-40b: Characterization of binding affinity for anti-LRRC15 mAbs. Anti-LRRC15 mAbs were assayed for their binding to U-87 MG (LRRC15+) cells.
Binding affinity of selected LRRC15 pH engineered antibody variants from Example 9 were measured on U-87 MG (LRRC15+) cells. 100,000 U-87 MG cells (ATCC HTB-14) were seeded per well in a 96 well deep well plate. Samrotamab and a pH engineered antibody variant were serially diluted at a 1:3 dilution in ice cold FC buffer (phosphate buffered saline (PBS), pH 7.4+2 mM ethylenediaminetetraacetic acid (EDTA)+2% (v/v) HI FBS). The plates were spun at 2,000 RPM for 2 minutes, the supernatant was removed, and 100 μL of diluted antibody was added to each well with final concentration ranging from 60 nM to 1 pM and incubated for 2 hours at 4° C. Post incubation, the cells were spun at 2000 rpm for 2 min and supernatant was discarded. Cells were washed twice with 500 μL of ice-cold FC buffer and resuspended with 100 μL of FC buffer. […] Post incubation, cells were washed with FC buffer and resuspended in 100 μL of FC buffer to read on a BD Accuri C6 flow cytometer. Binding affinity was measured as a dissociation constant KD by GraphPad Prism assuming Michaelis-Menten binding kinetics.

B1: samrotamab (antibody, V domains shown)
VH: EVQLVQSGAEVKKPGASVKVSCKASGYKFSSYWIEWVKQAPGQGLEWIGEILPGSDTTNYNEKFKDRATFTSDTSINTAYMELSRLRSDDTAVYYCARDRGNYRAWFGYWGQGTLVTVSS
VL: DIQMTQSPSSLSASVGDRVTITCRASQDISNYLNWYQQKPGGAVKFLIYYTSRLHSGVPSRFSGSGSGTDYTLTISSLQPEDFATYFCQQGEALPWTFGGGTKVEIK
notes: IgG; the entries called heavy and light chain hold the variable domains only; also called MYT0963
Usually IC50 stands for the point on the concentration scale where inhibition reaches its midpoint. High values mean a need for much substance, low ones inhibition by little substance. In turn, B1 had an IC50 of 0.228 nM.

B2: MYT0971 (antibody, V domains shown)
VH: EVQLVQSGAEVKKPGASVKVSCKASGYKFSSYHIEWVKQAPGQGLEWIGEILPGSDTTNYNEKFKDRATFTSDTSINTAYMELSRLRSDDTAVYYCARDRGNYRAWFGYWGQGTLVTVSS
VL: DIQMTQSPSSLSASVGDRVTITCRASQDISNYLNWYQQKPGGAVKFLIYYTSRLHSGVPSRFSGSGSGTDYTLTISSLQPEDFATYFCQQGEALPWTFGGGTKVEIK
notes: IgG
For the molecule B2, the IC50 came out at 0.484 nM.
